According to PMC7414962, “Screening and Evaluation of New Hydroxymethylfurfural Oxidases for Furandicarboxylic Acid Production” (Applied and Environmental Microbiology, 2020):

Legend:
MetspHMFO = molecular target: T1, MetspHMFO (Methylovorus sp. MP688, UniProt E4QP00); assay: UV-visible flavin spectrum; FAD release on heat denaturation; assay type: binding; settings: 50 mM Tris-HCl, pH 7.0, 25°C; co-purified prosthetic group
T1 construct: gene MPQ_0130
T1 sequence (E4QP00 1-531): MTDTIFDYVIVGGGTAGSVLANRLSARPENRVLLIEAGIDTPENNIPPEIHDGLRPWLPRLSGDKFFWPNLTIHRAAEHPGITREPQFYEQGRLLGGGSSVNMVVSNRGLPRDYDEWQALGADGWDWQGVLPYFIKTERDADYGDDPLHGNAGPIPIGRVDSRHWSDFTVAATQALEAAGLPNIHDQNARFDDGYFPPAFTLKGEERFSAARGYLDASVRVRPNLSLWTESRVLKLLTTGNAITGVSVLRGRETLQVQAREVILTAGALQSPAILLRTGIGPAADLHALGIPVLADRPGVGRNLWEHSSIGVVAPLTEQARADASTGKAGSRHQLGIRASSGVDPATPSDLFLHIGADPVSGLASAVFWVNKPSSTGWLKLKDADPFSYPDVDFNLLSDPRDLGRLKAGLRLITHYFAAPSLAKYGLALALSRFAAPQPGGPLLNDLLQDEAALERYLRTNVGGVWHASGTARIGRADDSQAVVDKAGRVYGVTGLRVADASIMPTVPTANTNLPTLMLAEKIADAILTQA

PseniHMFO^His = molecular target: T2, PseniHMFO^His (Pseudomonas nitroreducens, UniProt A0A6G6IPZ6); assay: as above; assay type: binding; settings: 50 mM Tris-HCl, pH 7.0, 25°C; co-purified prosthetic group
T2 construct: gene G5B91_01695
T2 sequence (A0A6G6IPZ6 1-531): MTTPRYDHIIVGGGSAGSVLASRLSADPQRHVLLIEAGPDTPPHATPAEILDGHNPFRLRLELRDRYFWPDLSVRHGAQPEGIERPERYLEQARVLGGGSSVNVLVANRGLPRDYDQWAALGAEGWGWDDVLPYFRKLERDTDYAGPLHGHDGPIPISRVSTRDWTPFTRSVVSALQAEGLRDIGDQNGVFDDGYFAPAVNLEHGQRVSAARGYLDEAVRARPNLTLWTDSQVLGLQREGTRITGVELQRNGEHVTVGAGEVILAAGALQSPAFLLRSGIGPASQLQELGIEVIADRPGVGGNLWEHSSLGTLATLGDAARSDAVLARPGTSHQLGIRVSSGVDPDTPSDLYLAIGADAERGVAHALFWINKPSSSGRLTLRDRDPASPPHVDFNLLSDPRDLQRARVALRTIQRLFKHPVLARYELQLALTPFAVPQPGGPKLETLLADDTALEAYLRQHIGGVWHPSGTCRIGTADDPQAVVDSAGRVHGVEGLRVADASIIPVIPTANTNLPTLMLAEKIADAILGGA

PsespHMFO = molecular target: T3, PsespHMFO (Pseudomonas sp. 11/12A, UniProt Z9N8I9PR93); assay: as above; assay type: binding; settings: 50 mM Tris-HCl, pH 7.0, 25°C; co-purified prosthetic group
T3 sequence (Z9N8I9PR93 1-530): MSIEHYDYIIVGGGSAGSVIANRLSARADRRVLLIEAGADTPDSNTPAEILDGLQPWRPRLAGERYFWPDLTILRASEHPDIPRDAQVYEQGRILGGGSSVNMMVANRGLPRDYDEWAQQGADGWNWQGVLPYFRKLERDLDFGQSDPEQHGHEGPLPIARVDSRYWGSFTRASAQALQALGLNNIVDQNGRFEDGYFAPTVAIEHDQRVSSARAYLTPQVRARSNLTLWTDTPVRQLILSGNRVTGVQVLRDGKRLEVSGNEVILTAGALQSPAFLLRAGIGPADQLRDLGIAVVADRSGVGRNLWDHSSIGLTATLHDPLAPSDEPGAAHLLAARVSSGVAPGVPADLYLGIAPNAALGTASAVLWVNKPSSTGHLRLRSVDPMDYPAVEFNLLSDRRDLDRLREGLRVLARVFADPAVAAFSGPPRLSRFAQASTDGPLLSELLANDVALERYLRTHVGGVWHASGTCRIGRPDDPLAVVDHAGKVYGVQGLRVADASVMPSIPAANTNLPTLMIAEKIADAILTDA

MetspHMFO^His = molecular target: T4, MetspHMFO^His (Methylovorus sp. MP688, UniProt E4QP00); assay: as above; assay type: binding; settings: 50 mM Tris-HCl, pH 7.0, 25°C; co-purified prosthetic group
T4 construct: gene MPQ_0130
T4 sequence (E4QP00 1-531): T1 sequence (E4QP00 1-531)

[1] = substrate: O=Cc1ccc(C=O)o1; assay: HRP/AmplexRed-coupled H2O2 assay; assay type: biochemical, Methylovorus sp. MP688; settings: 50 mM Tris-HCl, pH 7.0, 25°C, O2
Description: HRP/AmplexRed-coupled H2O2 assay on MetspHMFO

[2] = substrate: COc1cc(CO)ccc1O; assay: steady-state, direct spectrophotometry of vanillin; assay type: biochemical, Methylovorus sp. MP688; settings: 50 mM Tris-HCl, pH 7.0, 25°C, O2
Description: steady-state, direct spectrophotometry of vanillin on MetspHMFO

purified protein = substrate: O=Cc1ccc(CO)o1; assay: purified protein; settings: 50 mM Tris-HCl, pH 7.0, 25°C, O2
[3] = substrate: O=Cc1ccc(C=O)o1; assay: HRP/AmplexRed-coupled H2O2 assay; assay type: biochemical, Methylovorus sp. MP688; settings: 50 mM Tris-HCl, pH 7.0, 25°C, O2; remark: listed apart in the source
Description: HRP/AmplexRed-coupled H2O2 assay on MetspHMFO^His

[4] = substrate: COc1cc(CO)ccc1O; assay: steady-state, direct spectrophotometry of vanillin; assay type: biochemical, Methylovorus sp. MP688; settings: 50 mM Tris-HCl, pH 7.0, 25°C, O2; remark: listed apart in the source
Description: steady-state, direct spectrophotometry of vanillin on MetspHMFO^His

[5] = substrate: O=Cc1ccc(C=O)o1; assay: HRP/AmplexRed-coupled H2O2 assay; assay type: biochemical, Pseudomonas nitroreducens; settings: 50 mM Tris-HCl, pH 7.0, 25°C, O2
Description: (§1) HRP/AmplexRed-coupled H2O2 assay on PseniHMFO^His

[6] = substrate: O=Cc1ccc(CO)o1; assay: HRP/AmplexRed-coupled H2O2 assay; assay type: biochemical, Pseudomonas nitroreducens; settings: 50 mM Tris-HCl, pH 7.0, 25°C, O2
Description: as §1

[7] = substrate: COc1cc(CO)ccc1O; assay: steady-state, direct spectrophotometry of vanillin; assay type: biochemical, Pseudomonas nitroreducens; settings: 50 mM Tris-HCl, pH 10, 25°C, O2
Description: steady-state, direct spectrophotometry of vanillin on PseniHMFO^His

In the case of `Cc1cc2nc3c(=O)[nH]c(=O)nc-3n(C[C@H](O)[C@H](O)[C@H](O)COP(=O)(O)OP(=O)(O)OC[C@H]3O[C@@H](n4cnc5c(N)ncnc54)[C@H](O)[C@@H]3O)c2cc1C` [FAD], the “UV-visible flavin spectrum; FAD release on heat denaturation” value (shortened to “UV-visible flavin spectrum; FAD release”) (MetspHMFO) is reported as “The enzymes showed UV-visible spectra characteristic of FAD-containing proteins”, the “UV-visible flavin spectrum; FAD release” value (PseniHMFO^His) is reported as “The enzymes showed UV-visible spectra characteristic of FAD-containing proteins” and the “UV-visible flavin spectrum; FAD release” value (PsespHMFO) is reported as “The enzymes showed UV-visible spectra characteristic of FAD-containing proteins”. For the same molecule, the “UV-visible flavin spectrum; FAD release” value (MetspHMFO^His) was “The enzymes showed UV-visible spectra characteristic of FAD-containing proteins”.

B1: MetspHMFO (Methylovorus sp. MP688) (protein)
chain: T1 sequence (E4QP00 1-531)
B1 showed a Km [1] of 6.8 ± 0.6 mM, a kcat [1] of 0.102 ± 0.0033 s⁻¹ and a Km [2] of 0.5 ± 0.1 mM. For the same molecule, the kcat [2] was 19.5 ± 1.33 s⁻¹, the Km (purified protein) was 9.1 ± 0.7 mM and the kcat (purified protein) was 1.38 ± 0.0267 s⁻¹.

B2: MetspHMFO^His (Methylovorus sp. MP688) (protein)
chain: T1 sequence (E4QP00 1-531)
With B2 the Km [3] was 4.8 ± 1.9 mM, the kcat [3] was 0.0417 ± 0.005 s⁻¹ and the Km [4] was 0.6 ± 0.03 mM. For the same molecule, the kcat [4] was 19.83 ± 0.833 s⁻¹, the Km (purified protein) was 6.8 ± 0.8 mM and the kcat (purified protein) was 1.61 ± 0.0633 s⁻¹.

B3: PseniHMFO^His (Pseudomonas nitroreducens) (protein)
chain: T2 sequence (A0A6G6IPZ6 1-531)
B3 showed a Km [5] of 4.8 ± 1.9 mM, a kcat [5] of 0.0167 ± 0.0017 s⁻¹ and a Km [6] of 5.1 ± 1.1 mM. It also gave a kcat [6] of 0.238 ± 0.015 s⁻¹ and a Km [7] of 0.8 ± 0.2 mM.
